# Source: the domain aggregation screens of Martell et al. (2025)
# Assay: soluble fraction after stress (log2 fold change); higher = more stays soluble; pooled small domains, quantitative proteomics
# Conditions: stress: 75 degC
# 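Note: 20 min heating vs room temperature control held 20 min.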
row,Sequence,soluble fraction (log2)
1,HMNTKQRTAVMRILKQSSDPVSADDVFAALKDEYPSLALSTVYRNLERFADESMVKKDVWSDGIVRYSLAD,-0.21
2,HMNTLGTNIAKLRESQKLTQEELGKLSGVSRVSIYKIETGQSTPRDTTLQNIAEALHTTPSALRS,0.0781
3,HMNTLLYAPKVSPNPFTPNADGINDVVNISYKLLRVISAVPISVEVFDLSGRLIKTLYSGVDPLGEY,0.194
4,HMNTLPASVQPKKGRLYAVIQTKENGKSKPVWRSLGLPEGSNKSKVNKAFREVVKQFEEEYAERLAR,-0.181
5,HMNTLPTDELMKYGIINEDLSFSKKLNADDIQKFLQGYTIVADNDKNRATFQLTENNTKLKVIFLER,-0.44
6,HMNTLRFPEGTPEKDRMSIILASYNSGIGHVNDARRLARLNGEDPNSWEVVARYLQLKAQPEYYESEAVK,-0.204
7,HMNTPAENFDKAVEKYKSTNSATEKDAAFKVIEDEWIKLSDEEKKERQDEYDSIFESEGDRV,0.0843
8,HMNTQGWEIFEGRITTADTDLNPSGWIRIDGQRIFVISDAGFIDKGKEVSILSVDGNRVLVRK,-0.646
9,HMNTSMIEHMDKSTFIRFVFTNPVTHDQAVAKLMEKHMWFSTEEKAEAEIDKLLNKTNSLIESGGKLTW,0.0867
10,HMNTTLQLDTILRLEKNAHLLENFVRAGFTDSELGKLTDADLLQIGVPKIGDRRRLLAALAERAH,-0.904
11,HMNTVSPAVSAQLRQELGGELNNANFQQLQQYLQAGQRDEAIVYLTSLGIESPRAVSIVNNAMDQIG,0.494
12,HMNVDIVEITKNSSPNQISKVIDIGAIQIVEDLMSFGIMKAIDTPLEDSEIEQLLEKYNLIVDLIE,-2.01
13,HMNVDSIPGKSGIVTQGIDNLKAMGRVTVNGMEWTARSKDGSLIEEGKVVRVYGVEGVKLIVEED,0.0811
14,HMNVDSLPGEKAVVIKTIDNLRGTGQAVVNGLEWSAKSKDETIIDEGKVVRIVAVEGVKLVVEEE,0.0298
15,HMNVEALIGREGRVTDKIEANGYGRVKVDGDSWKAKSANGAEIRQNTDVRILSIDSVIITVEP,-0.766
16,HMNVESLVGKQVIVSETIDNLKATGQVKVNGLEWTARAADETDIIPQGTEVTINEVSGVKLIVSR,0.0398
17,HMNVESMVGKQGKVVVEIDNISAKGMIKVDGMEWTARSVDGEIIPKDSLVAVVSVEGVKAMVRKAE,-0.106
18,HMNVGKRLKSLREKYKFSLEEVAKKIKSSAGAISRYENNERKINSESLIRLSNLYNVSPEYILYG,-0.621
19,HMNVKQALLELMQRKPELTGSAIARAIGYSPAVISQYLKDGYPGDVVKLTTLIGDFIRRIDEKERS,-0.526

row,Sequence,soluble fraction (log2)
1,HMNVKVYATIDGDNFKVSGLKPGSNVRVYSSNGSAVFEKKAGDSEMIIPAGAWTKGIYVISADDQSIKVT,-0.0855
2,HMNVLGQTAIVRSLRLDATFGEVLLADGGAGLIFKARTHGDETFKKGDRVVLLEYLKDQHAYRVISETDFL,-2.45
3,HMNVLLGISELSHATGVTPAQLRYWVSQGYIKNYGSNKKNKFSLETVFMVRSIKIFQNQGYTLSASAKRAA,-1.38
4,HMNVNFVQANLANLPNIQAIYQKGNEMLNDMKRGEAREIDEAYSRVDNGVGTEKDFKVLLSFRDKIIAAMQ,-0.112
5,HMNVNSMIGKEGRVIEDIDNFNETGRIIVDGMEWTARAVNEQSITSGQKVVIREIQGVKAMVVPM,0.115
6,HMNVNTNTILKSLMETYPDSTVFKKAEIVSIANSLGFKKSDYSPLTSTDNRTDVRGQYDLSAVIIPMRESN,-0.14
7,HMNVPYEMVTQNGEVFYKYKVQPGEGVFAVSRTFSVSVAEILRVNPEANKGLKNGQVLLIPVPKDMIA,-1.71
8,HMNVVGAKGRIIKISSSEEKMAVAEIEGHGEWNIRTNSEIELFVGKSVEVIEMKGNYLLVNQI,-3.01
9,HMNVWESVDLRQEQHEAKRRLILKQAALLFADRGFHETTIDQIAEALNVTKPTIYYYIESKEDLLYQVA,-0.135
10,HMNWQLITDPKELRELVQKTIADNEAGTSRLREGDMGPLEFLTGIIMKKTRGLADPTMVKALLKEELNI,-0.0208
11,HMNYEFLEKIGFSSNEAKVYGTLIKHKVLNGYEIAKLSGVARSLVYEVINRLVAKGAVIRIDGEPNFYKP,-2.2
12,HMNYHDTLSYLMDAFGGADNLQKLLGVGPSALSNYRRREHLPLNQARKLSNIAPEFGFNLDPYTLKISVID,-1.62
13,HMNYKLESYLKKVDDQLNFIPVSDKADILSELKNTFYERLLNGQTEEEILDEMESPRELALSYMSES,-0.00676
14,HMNYTYTVPEGIRYLRADKALALAFPDHSRTALQRAFDSGLVTLRGVAIKRDQSVTALDTLEFAMPDI,-0.981
15,HMNYVFVLNEHGVRQTSYVVGLHADTLEKTEKLAKQTYPTSTIISGDSEMQSQFISGKAYVNGEFVDP,-0.713
16,HMPAFWILAVLAGGRRHGYQIMREAALSSEGLVTLKPTTLYAALERLERDGAIQQDGEEIVDGRVRRYYRI,0.16
17,HMPAKDAEFTAFVRSATPTLTRTAYLLTGDRETASDLVQEAFVRTYLAWRRVRPEEATAYTRRVLVN,0.321
18,HMPAPMISIQLNGEPRNVQPGISIAALVREIGLEPAKVAVERNREIVPRSTLGDVLIEAGDQLEIVHFVG,-0.45
19,HMPAQPEPYNNLARLYSAQGKLDQAASLLRAGLYTDPAYRALFDNLTRIYAEQAARSLSAALD,-1.1
